{"source": "the RNAGym collection of RNA variant scans (doi:10.7554/elife.90254)", "parents": {"B1": {"name": "LINE1-mini (parent)", "chain": "GGCAGAGCUCAACACAGCGUGGCAAAGUGGCUGUGGCUAGACUGCC"}}}
{"variants_of": "B1", "assay": "self-cleavage, relative activity (ratio to wild type); higher = more cleavage; in vitro, sequencing; the parent is a self-cleaving ribozyme"}
{"variant": "GGCAGAGCUCAACACAGCGUGGCAAAGUGGCUGUGACUAGAGUGCC", "note": "[G36A C42G]", "self-cleavage": 0.07}
{"variant": "GGCAGAGCUCAACUCAGCGUGGCAAAGUGGCUGUGGCUAGUCUGCC", "note": "[A14U A41U]", "self-cleavage": 0.25}
{"variant": "GGCAGAGCUCAACACAGAGUGGCAAAGUGGCUGUCGCUAGACUGCC", "note": "[C18A G35C]", "self-cleavage": 0.05}
{"variant": "GGCAGAGCUCAACACAGCGUAGCAAAGUGGCUGUGACUAGACUGCC", "note": "[G21A G36A]", "self-cleavage": 0.3}
{"variant": "GGCAGAGCACAACACAGCGUGGCAAAGUGGCUGUGGCUACACUGCC", "note": "[U9A G40C]", "self-cleavage": 0.08}
{"variant": "GGCAGAGCUCAACAAAGCGUGGCAAAGUGGCUGUGGCUAGACAGCC", "note": "[C15A U43A]", "self-cleavage": 0.07}
{"variant": "GGCGGAGCUCAACACAGCGUGGAAAAGUGGCUGUGGCUAGACUGCC", "note": "[A4G C23A]", "self-cleavage": 0.44}
{"variant": "GGCAGAGGUCAACACAGCGUGGCAAAGUGGCUGUGGCUAGACUGCU", "note": "[C8G C46U]", "self-cleavage": 0.09}
{"variant": "GGCAGAGCUCAACACAGCUUGGCAAAGUGGCUGUGGCUAGAUUGCC", "note": "[G19U C42U]", "self-cleavage": 0.3}
{"variant": "GGCAGAGCACAACACAGCGUGGCAAAGUGGCGGUGGCUAGACUGCC", "note": "[U9A U32G]", "self-cleavage": 0.19}
{"variant": "GGCAGAGCUCGACACAGCGGGGCAAAGUGGCUGUGGCUAGACUGCC", "note": "[A11G U20G]", "self-cleavage": 0.03}
{"variant": "GGCAGAGCUCAACACAGCGUGGCAAAGUGGCUGAGGCUAGACUGCG", "note": "[U34A C46G]", "self-cleavage": 0.08}
{"variant": "GGAAGAGCUGAACACAGCGUGGCAAAGUGGCUGUGGCUAGACUGCC", "note": "[C3A C10G]", "self-cleavage": 0.05}
{"variant": "GGCAAAGCUCAACACAGCGUGGCAAAGUGGCUGUGGCUAGACUGCG", "note": "[G5A C46G]", "self-cleavage": 0.16}
{"variant": "GGCAGAACUCAACACACCGUGGCAAAGUGGCUGUGGCUAGACUGCC", "note": "[G7A G17C]", "self-cleavage": 0.18}
{"variant": "GGCAGAGCUCAACACAGCGUGGCAAAGUGGCUGUGUCCAGACUGCC", "note": "[G36U U38C]", "self-cleavage": 0.11}
{"variant": "GGCAGAGCUCAACACAGCGUGGCAAAGUGGCUGUGCCUAGACUACC", "note": "[G36C G44A]", "self-cleavage": 0.04}
{"variant": "GGCAGAGCUCAACACAGCGUGGCAAAGUGGUUGUGGCUAGAAUGCC", "note": "[C31U C42A]", "self-cleavage": 0.09}
{"variant": "GGCAGAGUUCAACACAGCGUGGCAAAGUGGCUGUGGCUACACUGCC", "note": "[C8U G40C]", "self-cleavage": 0.13}
{"variant": "GGCAGAGCUCAACACAGCGUGGCAAGGUGGCAGUGGCUAGACUGCC", "note": "[A26G U32A]", "self-cleavage": 0.08}
{"variant": "GGCAGAGCUCAACACAGCGUGGCAAAGUGGCUGUGGCUAGAAUGCC", "note": "[C42A]", "self-cleavage": 0.17}
{"variant": "GGCAGAGCUCAUCACAGCGUGGCAGAGUGGCUGUGGCUAGACUGCC", "note": "[A12U A25G]", "self-cleavage": 0.4}
{"variant": "GGCAGAGCACAACACAGCGUGGCAAAGUGGCUGUGGCUAGACUGCU", "note": "[U9A C46U]", "self-cleavage": 0.17}
{"variant": "GGCGUAGCUCAACACAGCGUGGCAAAGUGGCUGUGGCUAGACUGCC", "note": "[A4G G5U]", "self-cleavage": 0.16}
{"variant": "GGCAGAGCUCAACACAGCGUGGCAAAUUGGCUGUGGCUAGACUGCG", "note": "[G27U C46G]", "self-cleavage": 0.76}
{"variant": "GGCAGUGCUCAACACAGCGUGGCAAAGUGGCUGUGACUAGACUGCC", "note": "[A6U G36A]", "self-cleavage": 0.26}
{"variant": "GGCAGAGCUCAAUACAGCGUGGCAAAGUGGCUGUGGUUAGACUGCC", "note": "[C13U C37U]", "self-cleavage": 0.11}
{"variant": "GGCAGAGCUCAACACAGCGUGGCAAAGUGGCAGUGGCUAGACUUCC", "note": "[U32A G44U]", "self-cleavage": 0.06}
{"variant": "GGCAGAGCUCAACACAGCGUGGCAAAGUGGCUGUGGGUACACUGCC", "note": "[C37G G40C]", "self-cleavage": 0.08}
{"variant": "GGCAGAGCUCAACCCAGCGAGGCAAAGUGGCUGUGGCUAGACUGCC", "note": "[A14C U20A]", "self-cleavage": 0.08}
{"variant": "GGCAGAGCUCAACACAGCGUGGCAAAGUGACUGUGGCUACACUGCC", "note": "[G30A G40C]", "self-cleavage": 0.16}
{"variant": "GGCAGAGCUCAACACAUCGUGGCAAAGUGGCUGUGGCAAGACUGCC", "note": "[G17U U38A]", "self-cleavage": 0.17}
{"variant": "GGCAGAGCUCAACAUAGCGUGGCAAAGUGGCUGUGGCUACACUGCC", "note": "[C15U G40C]", "self-cleavage": 0.07}
{"variant": "GGCAGAGCUCAACACAGCGUGGAAAAGUGGCGGUGGCUAGACUGCC", "note": "[C23A U32G]", "self-cleavage": 0.22}
{"variant": "GGCAGUGCUCAACACAGCGUGGCAAAGUGGCUGUGGCUAUACUGCC", "note": "[A6U G40U]", "self-cleavage": 0.3}
{"variant": "GGCAGAGCUCAACACAGCGUGGCAAAGUGUCUGAGGCUAGACUGCC", "note": "[G30U U34A]", "self-cleavage": 0.05}
{"variant": "GGCAGAGCUCAACACAGCGUGGCAAAGUGGCUGUGGCUAGACAGCC", "note": "[U43A]", "self-cleavage": 0.11}
{"variant": "GGCAGAGCACAACACAGUGUGGCAAAGUGGCUGUGGCUAGACUGCC", "note": "[U9A C18U]", "self-cleavage": 0.11}
{"variant": "GGCAGAGCUCAACACAGCGUGGCAAAGUUGCUGUGGCUAGACUGCU", "note": "[G29U C46U]", "self-cleavage": 1.51}
{"variant": "GGCAGAGGUCCACACAGCGUGGCAAAGUGGCUGUGGCUAGACUGCC", "note": "[C8G A11C]", "self-cleavage": 0.02}
{"variant": "GGCAGAGCUCAACGCAGCGUGGCAAACUGGCUGUGGCUAGACUGCC", "note": "[A14G G27C]", "self-cleavage": 0.61}
{"variant": "GGCAGAGCUCAACACAGCGUGGCAAAGCGGCUGUGGCUUGACUGCC", "note": "[U28C A39U]", "self-cleavage": 1}
{"variant": "GGCAGAGCUCAACACAUCGUGGCAAAGUGGCUGUGGCUUGACUGCC", "note": "[G17U A39U]", "self-cleavage": 0.2}
{"variant": "GGCAGAGCACAACACAGCGUGGCAAAGUGCCUGUGGCUAGACUGCC", "note": "[U9A G30C]", "self-cleavage": 0.1}
{"variant": "GGCAGAGCUCAACACAGCGUGGCAAUGUGGCCGUGGCUAGACUGCC", "note": "[A26U U32C]", "self-cleavage": 0.11}
{"variant": "GGCAGAGCUCAACACAGCAUGACAAAGUGGCUGUGGCUAGACUGCC", "note": "[G19A G22A]", "self-cleavage": 0.62}
{"variant": "GGCAGAGCUCAACACGGCGUGGCAAAGUGGCUGUGGCUAUACUGCC", "note": "[A16G G40U]", "self-cleavage": 0.05}
{"variant": "GGCAGAGCUCACCACAGCGUGGCAAAGUGGCUGUGGCUAGACUGCA", "note": "[A12C C46A]", "self-cleavage": 0.02}
{"variant": "GUCAGAGCUCAACACAGCGUGGCAAAGAGGCUGUGGCUAGACUGCC", "note": "[G2U U28A]", "self-cleavage": 0.07}
{"variant": "GACAGAGCUCAACAUAGCGUGGCAAAGUGGCUGUGGCUAGACUGCC", "note": "[G2A C15U]", "self-cleavage": 0.5}
{"variant": "GGCAGAGCUAAACACAGCGUGGCCAAGUGGCUGUGGCUAGACUGCC", "note": "[C10A A24C]", "self-cleavage": 0.03}
{"variant": "GGCAGAGCUCAUCACAGCGUGGCGAAGUGGCUGUGGCUAGACUGCC", "note": "[A12U A24G]", "self-cleavage": 0.39}
{"variant": "GGCAGAGCUAAACACAGCGUGGCAAAGUGGCUGUGGCUAGGCUGCC", "note": "[C10A A41G]", "self-cleavage": 0.03}
{"variant": "GGCAGAGCUCAACACAGCGUGGCAAAGUGGCUGUGGCUAUACUGGC", "note": "[G40U C45G]", "self-cleavage": 0.14}
{"variant": "GGCAGAGCUCAACACAGCUUGGCAAAGAGGCUGUGGCUAGACUGCC", "note": "[G19U U28A]", "self-cleavage": 0.63}
{"variant": "GGCAGAGCUCAACACAGCGUGGCACACUGGCUGUGGCUAGACUGCC", "note": "[A25C G27C]", "self-cleavage": 0.39}
